These results are taken from publication PMC10902388.

For experiment [1], the target named is E6AP-Nanoluc (human) (UniProt Q05086). Put plainly: FRET or BRET.
Experiment [2] shares this target. Nature of the experiment: SPR.

E6AP-Nanoluc (human), sequence (Q05086 whole entry): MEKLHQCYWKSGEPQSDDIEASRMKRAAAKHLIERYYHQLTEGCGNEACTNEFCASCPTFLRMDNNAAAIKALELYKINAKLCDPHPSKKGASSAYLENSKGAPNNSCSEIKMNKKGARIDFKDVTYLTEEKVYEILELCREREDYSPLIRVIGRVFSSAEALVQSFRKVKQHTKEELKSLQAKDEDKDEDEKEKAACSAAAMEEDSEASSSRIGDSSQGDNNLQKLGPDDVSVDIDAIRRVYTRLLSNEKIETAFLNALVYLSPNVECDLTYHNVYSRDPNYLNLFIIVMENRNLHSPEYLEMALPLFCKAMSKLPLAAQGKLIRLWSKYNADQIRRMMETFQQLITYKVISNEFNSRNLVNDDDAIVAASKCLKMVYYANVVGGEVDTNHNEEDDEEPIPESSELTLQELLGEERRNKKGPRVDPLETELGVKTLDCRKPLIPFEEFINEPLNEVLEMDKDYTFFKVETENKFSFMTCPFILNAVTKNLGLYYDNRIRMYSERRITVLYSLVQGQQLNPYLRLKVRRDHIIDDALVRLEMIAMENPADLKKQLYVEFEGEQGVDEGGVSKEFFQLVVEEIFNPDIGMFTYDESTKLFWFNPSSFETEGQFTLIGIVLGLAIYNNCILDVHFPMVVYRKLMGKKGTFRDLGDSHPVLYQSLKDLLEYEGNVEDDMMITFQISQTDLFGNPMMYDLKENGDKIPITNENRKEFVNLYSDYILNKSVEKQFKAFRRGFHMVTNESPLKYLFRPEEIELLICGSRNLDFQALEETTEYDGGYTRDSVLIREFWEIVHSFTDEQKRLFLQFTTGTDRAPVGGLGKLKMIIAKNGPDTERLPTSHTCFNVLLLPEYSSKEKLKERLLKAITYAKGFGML

As to “MBP-16E6-HaloTag protein (from UniProt P03126) (natural protein)”, the equilibrium dissociation constant (Kd) worked out at 15.3 nM in experiment [1] and 4 nM in experiment [2].
